Experimental data published in US20170182124A1, “FGF21 Derivatives and Uses Thereof” (Novo Nordisk A/S, priority 2014, published 2017).
Changes are numbered by the printed parent chain. Marks after values point to notes of the source that are not given here.

B1: Ala[Gln121, Leu168]FGF21 (protein)
chain: AHPIPDSSPLLQFGGQVRQRYLYTDDAQQTEAHLEIREDGTVGGAADQSPESLLQLKALKPGVIQILGVKTSRFLCQRPDGALYGSLHFDPEACSFRELLLEDGYNVYQSEAHGLPLHLPGQKSPHRDPAPRGPARFLPLPGLPPALPEPPGILAPQPPDVGSSDPLSLVGPSQGRSPSYAS
modifications: N-terminal Ala
B2: S{Beta-180}-[2-[2-[[2-[2-[2-[[2-[2-[2-[[(4S)-4-carboxy-4-(11-carboxyundecanoyl-amino)butanoyl]amino]ethoxy]ethoxy]acetyl]amino]ethoxy]ethoxy]acetyl]amino]-ethylamino]-2-oxoethyl]-Ala[Gln121,Leu168,Cys … (protein)
chain: HPIPDSSPLLQFGGQVRQRYLYTDDAQQTEAHLEIREDGTVGGAADQSPESLLQLKALKPGVIQILGVKTSRFLCQRPDGALYGSLHFDPEACSFRELLLEDGYNVYQSEAHGLPLHLPGQKSPHRDPAPRGPARFLPLPGLPPALPEPPGILAPQPPDVGSSDPLSLVGPSQGRSPSYCS
B3: S{Beta-180}-[2-[2-[[2-[2-[2-[[2-[2-[2-[[(4S)-4-carboxy-4-(13-carboxytridecanoyl-amino)butanoyl]amino]ethoxy]ethoxy]acetyl]amino]ethoxy]ethoxy]acetyl]amino]-ethylamino]-2-oxoethyl]-Ala[Gln121,Leu168,Cy … (protein)
chain: B2 chain
B4: S{Beta-181}-[2-[2-[[2-[2-[2-[[2-[2-[2-[[(4S)-4-carboxy-4-(11-carboxyundecanoyl-amino)butanoyl]amino]ethoxy]ethoxy]acetyl]amino]ethoxy]ethoxy]acetyl]amino]-ethylamino]-2-oxoethyl]-Ala[Gln121,Leu168,Cys … (protein)
chain: B2 chain with C180A, S181C
B5: S{Beta-180}-[2-[2-[[2-[2-[2-[[2-[2-[2-[[(4S)-4-carboxy-4-(15-carboxypentadecanoyl-amino)butanoyl]amino]ethoxy]ethoxy]acetyl]amino]ethoxy]ethoxy]acetyl]amino]-ethylamino]-2-oxoethyl]-Ala[Gln121,Leu168, … (protein)
chain: B2 chain
B6: S{Beta-181}-[2-[2-[[2-[2-[2-[[2-[2-[2-[[(4S)-4-carboxy-4-(17-carboxyheptadecanoyl-amino)butanoyl]amino]ethoxy]ethoxy]acetyl]amino]ethoxy]ethoxy]acetyl]amino]-ethylamino]-2-oxoethyl]-Ala[Gln121,Leu168, … (protein)
chain: B2 chain with C180A, S181C

Test system: not listed separately
Assay: Body weight reduction in lean mice
Format: in vivo, lean C57BL mice
Conditions: s.c. 1 mg/kg BID for 7 days, change from baseline day 1 to 7
Protocol: In order to determine the in vivo potency of the FGF21 derivatives the effect on body weight was studied in lean C57BL mice after subcutaneous (s.c.) administration. It has previously been shown that the weight loss induced by FGF21 in lean mice is predictive of the effect in obese mice and therefore lean mice are considered a good screening model.
The compounds were administered s.c. 1 mg/kg either once (QD) or twice (BID) daily in 10 mM phosphate, 2% (w/vol) glycerol, 500ppm (=0.05%) polysorbate 80, pH=8.15, (2 ml/kg) for 7 days (n=7-8). The respective vehicle treated groups (control) were treated with 10 mM phosphate, 2% (w/vol) glycerol, 500ppm (=0.05%) polysorbate 80, pH=8.15, (2 ml/kg) s.c. twice daily for 7 days (n=6-8). Body weight was measured before dosing and again after 7 days treatment.
In the case of B1, the “Mean Δ body weight (%)” value is reported as −1.98** %. In the case of B2, the “Mean Δ body weight (%)” value is reported as −2.04%. In the case of B3, the “Mean Δ body weight (%)” value is reported as −3.09* %. With B4 the “Mean Δ body weight (%)” value was 0.04%.

Same assay, conditions: s.c. 1 mg/kg QD for 7 days, change from baseline day 1 to 7
With B3 the “Mean Δ body weight (%)” value was 1.85%. For B5, the “Mean Δ body weight (%)” value was −4.48*** %.

Test system: not listed separately
Assay: Pharmacokinetic study in mice (i.v.)
Conditions: terminal half-life, single intravenous dose of 20 mg/kg, lean C57bl mice
Protocol: This was done in a pharmacokinetic (PK) study, where the terminal half-life of the analogue in question was determined. By terminal half-life is meant the time it takes to halve a certain plasma concentration in the terminal elimination phase.
The pharmacokinetic profile of FGF21 analogues was tested in normal lean C57b1 mice, n =2-3 (approximately 30 grams). FGF21 compounds were dosed as a single intravenous dose of 20 mg/kg (approximately 5 ml/kg).
The plasma levels of the FGF21 compounds were determined using Fibroblast Growth Factor-21 Human ELISA (available from BioVendor, catalogue no. RD191108200R). The PC based software, WnNonLin version 6.3 from Pharsight Corportion, Cary N.C., was used for the pharmacokinetic calculation.
In the case of B2, the Half-life mice is reported as 1 h. Molecule B6 has a Half-life mice of 14 h. With B3 the Half-life mice was 1 h. Work on B5 yielded a Half-life mice of 3 h. B4 showed a Half-life mice of 1 h.

Molecular target: 3T3-L1 adipocytes (Mus musculus, UniProt P16092+Q99N32)
Sequence (Q99N32 whole entry): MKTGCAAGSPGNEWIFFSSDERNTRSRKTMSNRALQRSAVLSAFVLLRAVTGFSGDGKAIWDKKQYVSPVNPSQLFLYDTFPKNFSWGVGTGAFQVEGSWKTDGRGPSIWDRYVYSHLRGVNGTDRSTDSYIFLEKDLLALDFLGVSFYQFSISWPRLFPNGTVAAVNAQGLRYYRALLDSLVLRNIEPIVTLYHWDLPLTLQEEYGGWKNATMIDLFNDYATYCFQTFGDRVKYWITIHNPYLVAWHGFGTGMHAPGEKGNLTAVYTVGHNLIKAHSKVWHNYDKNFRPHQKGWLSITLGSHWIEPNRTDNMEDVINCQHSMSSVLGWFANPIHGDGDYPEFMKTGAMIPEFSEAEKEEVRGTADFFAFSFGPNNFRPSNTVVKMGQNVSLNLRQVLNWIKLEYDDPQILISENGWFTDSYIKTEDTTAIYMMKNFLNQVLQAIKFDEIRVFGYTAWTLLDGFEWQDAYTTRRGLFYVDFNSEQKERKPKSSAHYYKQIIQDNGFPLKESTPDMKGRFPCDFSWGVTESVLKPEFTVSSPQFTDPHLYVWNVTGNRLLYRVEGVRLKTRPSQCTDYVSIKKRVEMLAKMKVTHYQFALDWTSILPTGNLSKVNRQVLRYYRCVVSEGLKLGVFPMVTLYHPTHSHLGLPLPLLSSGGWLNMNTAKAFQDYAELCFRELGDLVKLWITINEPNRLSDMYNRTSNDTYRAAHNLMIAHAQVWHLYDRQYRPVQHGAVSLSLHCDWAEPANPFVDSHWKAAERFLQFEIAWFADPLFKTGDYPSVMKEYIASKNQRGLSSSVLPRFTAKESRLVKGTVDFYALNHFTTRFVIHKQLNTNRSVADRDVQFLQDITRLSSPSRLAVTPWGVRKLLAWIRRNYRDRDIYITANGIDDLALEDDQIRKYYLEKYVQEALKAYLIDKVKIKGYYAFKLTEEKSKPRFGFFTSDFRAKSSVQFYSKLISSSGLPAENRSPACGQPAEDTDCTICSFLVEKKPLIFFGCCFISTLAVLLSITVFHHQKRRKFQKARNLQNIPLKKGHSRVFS
Sequence (P16092 22-822): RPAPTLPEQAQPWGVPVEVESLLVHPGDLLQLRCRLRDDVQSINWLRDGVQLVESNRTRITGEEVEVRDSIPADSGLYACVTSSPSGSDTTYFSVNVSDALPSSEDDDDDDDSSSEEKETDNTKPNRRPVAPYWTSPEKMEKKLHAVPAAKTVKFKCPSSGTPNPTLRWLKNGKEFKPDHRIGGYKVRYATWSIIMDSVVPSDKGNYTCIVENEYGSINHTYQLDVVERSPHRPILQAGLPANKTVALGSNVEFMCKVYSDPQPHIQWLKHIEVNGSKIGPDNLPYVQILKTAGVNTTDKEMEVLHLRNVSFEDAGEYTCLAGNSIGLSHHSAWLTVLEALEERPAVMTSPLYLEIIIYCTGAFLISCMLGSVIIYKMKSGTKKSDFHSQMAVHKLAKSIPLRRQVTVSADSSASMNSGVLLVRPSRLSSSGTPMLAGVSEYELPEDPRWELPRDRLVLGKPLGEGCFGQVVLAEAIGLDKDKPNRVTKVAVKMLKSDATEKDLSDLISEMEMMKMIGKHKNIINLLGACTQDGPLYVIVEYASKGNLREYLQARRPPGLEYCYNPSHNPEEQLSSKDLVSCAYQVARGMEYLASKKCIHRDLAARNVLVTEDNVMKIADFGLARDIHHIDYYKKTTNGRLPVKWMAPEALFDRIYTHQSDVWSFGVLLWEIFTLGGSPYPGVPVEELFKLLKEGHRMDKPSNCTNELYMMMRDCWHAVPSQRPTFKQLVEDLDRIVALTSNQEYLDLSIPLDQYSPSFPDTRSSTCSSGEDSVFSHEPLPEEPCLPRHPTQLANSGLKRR
Assay: Glucose uptake in 3T3-L1 adipocytes
Format: cell-based
Conditions: stimulated 20 hours, 3H-deoxy-glucose
Protocol: The C-terminal modified analogues were tested for their ability to increase glucose uptake in 3T3-L1 mouse adipocytes. The following assay was used for determining the biological activity, or potency, of FGF21 analogues and derivatives of the invention.
The in vitro potency may also be determined in an assay with mouse 3T3-L1 adipocytes by testing the FGF21 analogues and derivatives for their ability to increase glucose uptake into adipocytes. Differentiated 3T3-L1 adipocytes endogenously express FGFR1c and BKL. The 3T3-L1 cells are unresponsive to FGF21 until after differentiated as differentiation lead to expression of the co-receptor BKL. Activation of the FGFR1 receptor/BKL complex increase the expression of glucose transporter 1 (GLUT1) and therefore FGF21 agonists will lead to an increased amount of glucose taken into the adipocytes in a dose responsive manner.
Mouse 3T3-L1 fibroblasts (e.g. available from ATCC, catalogue no. CL-173) were maintained in basal medium (DMEM (4500 mg/I Glucose) with 10% Fetal Bovine Serum (FBS) and 1% Penicillin/Streptomycin). The cells are not allowed to reach confluence and should be passed (transferred to new vials) before reaching approx. 60% of confluency (by visual inspection).
For the glucose uptake assay, cells were 15.000 cells/well in a 96 well plate (BIOCOAT), and when they reached confluency (high density, with a view to have differentiated adipose cells made), the medium was changed from basal medium to basal medium containing Troglitazone, IBMX, Dexamethasone (commercially available from, e.g., Sigma) and human insulin (commercially available from, e.g., Novo Nordisk A/S).
The cells were used 7-9, days after initiation of differentiation. The cells were stimulated with increasing concentrations (0-300 nM) of the FGF21 analogues or derivatives of the invention for 20 hours in basal medium. Before addition of 3H-deoxy-glucose (in what follows: the tracer) the cells were washed in warm (approximately 37° C.) assay buffer (PBS with 1 mM MgCl2 and 2 mM CaCl2), HEPES and 0.1% Human serum albumin) and the cells were incubated with the tracer for 1 hour. This incubation was terminated by washing twice in ice cold assay buffer. The cells were lysed with Triton X-100 and lysates transferred to a 96 wells plate, microscint-40 (commercially available from, e.g., Perkin Elmer) was added and amount of tracer counted in a TOP-counter (e.g. a Packard top-counter from Perkin Elmer). The EC50 and Emax of the FGF21 compound in question were calculated. The results which are shown in tables 4-5 below indicate the EC50 (potency) and Emax (efficacy) of the FGF21 analogues and derivatives, respectively.
With B1 the EC50 was 3.1 nM and the “Glucose uptake Emax” value was 85%. In the case of B2, the EC50 is reported as 2.7 nM and the “Glucose uptake Emax” value is reported as 87%. With B6 the EC50 was 56 nM and the “Glucose uptake Emax” value was 73%. With B3 the EC50 was 6.7 nM and the “Glucose uptake Emax” value was 106%. In the case of B5, the EC50 is reported as 9.1 nM and the “Glucose uptake Emax” value is reported as 98%.

Test system: not listed separately
Assay: Pharmacokinetic study in mini pigs (i.v.)
Conditions: terminal half-life, female Gottingen mini pigs
Protocol: The purpose of this study was to determine the protraction in vivo of the FGF21 derivatives after i.v. administration to mini pigs and mice, i.e. the prolongation of their time in the body and thereby their time of action. This was done in a pharmacokinetic (PK) study, where the terminal half-life of the analogue in question was determined. By terminal half-life is meant the time it takes to halve a certain plasma concentration in the terminal elimination phase.
Female Gottingen mini pigs were obtained from Ellegaard Gottingen Minipigs (Dalmose, Denmark) approximately 7-14 months of age and weighing approximately 16-35 kg were used in the studies. The mini pigs were housed either individually (pigs with permanent catheters) or in a group and fed restrictedly once or twice daily with SDS mini pig diet (Special Diets Services, Essex, UK).
After at least 2 weeks of acclimatisation two permanent central venous catheters were implanted in vena cava caudalis or cranialis in each animal. The animals were allowed 1 week recovery after the surgery, and were then used for repeated pharmacokinetic studies with a suitable wash-out period between successive dosing.
Blood samples (for example 0.8 ml) were collected in EDTA (8 mM) coated tubes and then centrifuged at 4° C. and 1942G for 10 minutes. Blood samples were collected to adequately cover the full plasma concentration-time profile of the API. In example blood samples were collected at t=predose, 0.0833, 0.25, 0.5, 0.75, 1, 1.5, 2, 3, 4, 6, 8, 10, 24, 30, 48, 72, 96, 120, 144, 168, 192, 216, 240, 264 hours after dose.
Plasma was pipetted into Micronic tubes on dry ice, and kept at −20° C. until analysed for plasma concentration of the respective FGF-1 analogue using ELISA. Individual plasma concentration-time profiles were analyzed by a non-compartmental pharmacokinetic method in Phoenix v. 6.3 (Pharsight Inc., Mountain View, Calif., USA), or other relevant software for PK analysis, and the resulting terminal half-lives (harmonic mean) determined.
With B6 the Half-life mini pigs was 85 h. B3 showed a Half-life mini pigs of 3 h. For B5, the Half-life mini pigs was 23 h.

Molecular target: FGF receptor/BKL complex
Sequence (Q86Z14 whole entry, one chain of several): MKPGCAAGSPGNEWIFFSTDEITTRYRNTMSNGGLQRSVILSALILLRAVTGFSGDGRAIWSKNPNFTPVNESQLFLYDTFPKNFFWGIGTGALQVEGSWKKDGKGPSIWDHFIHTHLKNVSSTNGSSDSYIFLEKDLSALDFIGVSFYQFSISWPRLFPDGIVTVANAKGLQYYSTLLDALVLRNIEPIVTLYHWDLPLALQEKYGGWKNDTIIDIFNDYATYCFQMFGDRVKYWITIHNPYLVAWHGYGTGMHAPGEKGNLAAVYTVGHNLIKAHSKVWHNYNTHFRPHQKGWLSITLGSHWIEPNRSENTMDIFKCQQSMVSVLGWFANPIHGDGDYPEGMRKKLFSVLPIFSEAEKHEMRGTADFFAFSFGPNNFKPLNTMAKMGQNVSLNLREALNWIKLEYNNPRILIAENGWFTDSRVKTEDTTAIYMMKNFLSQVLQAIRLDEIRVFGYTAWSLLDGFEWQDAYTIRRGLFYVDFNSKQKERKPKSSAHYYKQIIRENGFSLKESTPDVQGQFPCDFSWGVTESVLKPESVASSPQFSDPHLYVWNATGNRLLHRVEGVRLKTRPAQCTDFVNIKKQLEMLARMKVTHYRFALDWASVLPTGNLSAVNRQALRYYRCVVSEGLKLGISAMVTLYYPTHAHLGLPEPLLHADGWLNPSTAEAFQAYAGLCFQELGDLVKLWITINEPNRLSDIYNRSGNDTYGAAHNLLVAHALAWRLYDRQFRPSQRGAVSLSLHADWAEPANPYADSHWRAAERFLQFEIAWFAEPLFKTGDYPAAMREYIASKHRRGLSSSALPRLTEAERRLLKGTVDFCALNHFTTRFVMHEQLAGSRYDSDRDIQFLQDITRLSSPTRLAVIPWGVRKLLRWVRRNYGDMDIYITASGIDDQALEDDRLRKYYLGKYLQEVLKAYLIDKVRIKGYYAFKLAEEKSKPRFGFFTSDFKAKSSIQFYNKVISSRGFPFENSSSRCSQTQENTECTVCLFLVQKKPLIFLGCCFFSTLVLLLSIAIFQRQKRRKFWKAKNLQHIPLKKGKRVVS
Assay: FGF receptor potency in an Erk phosphorylation assay in HEK293 overexpressing human BKL
Format: cell-based
Conditions: HEK293/BKL cells, pERK after 12 minutes, absence of HSA; read-out: EC50
Procedure, shortened: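 pERK after 12 min analogue exposure at 37° C. was quantified by AlphaScreen SureFire in lysates of beta-klotho-transfected HEK293 cells. Assay medium was DMEM with 0.02% Tween20, run both without albumin and with 0.1% final HSA to probe albumin binding. Cells were starved 2 h in basal medium first. Absolute EC50 reported.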
B1 gave an EC50 of 2 nM. In the case of B2, the EC50 is reported as 7 nM. B6 gave an EC50 of 42 nM. Work on B3 yielded an EC50 of 6 nM. B5 gave an EC50 of 4 nM. Work on B4 yielded an EC50 of 154 nM.

Same assay, conditions: HEK293/BKL cells, pERK after 12 minutes, presence of 0.1% HSA; read-out: EC50 (0.1% HSA)
With B2 the EC50 was 4 nM. In the case of B6, the EC50 is reported as 170 nM. Molecule B3 has an EC50 of 6 nM. For B5, the EC50 was 6 nM. B4 showed an EC50 of 137 nM.
